Numbering of substitutions follows the chain as printed.
How the values were obtained:
[1] = system: target mRNA encoding green fluorescent protein (GFP); experiment: Protein expression assay: in vivo GFP regulation activity of antiswitches in yeast cells; format: cell-based, S. cerevisiae; details: for theophylline concentration at which the antiswitch switches GFP expression (inhibits expression / decreases to background levels): theophylline concentration in the media, s8 is an "on" switch; for switching theophylline concentration compared with s1-4: modified lower-affinity theophylline aptamer
Method: (§1) Yeast cells were inoculated into synthetic complete media supplemented with the appropriate drop out solution and sugar source (2% raffinose, 1% sucrose) and grown overnight at 30° C. Cells were back diluted into fresh media to an OD600 of 0.1 and grown at 30° C. For assaying antiswitch activity, this fresh media contained appropriate concentrations of theophylline (Sigma), caffeine (Sigma), tetracycline (Sigma), or water (negative control) and expression was induced to a final concentration of 2% galactose, or an equivalent volume of water was added (noninduced control). After growing for three hours, the GFP and Venus levels were assayed on a Safire (Tecan) fluorescent plate reader set to the appropriate excitation (GFP-485 nm; Venus-515 nm) and emission (GFP-515 nm; Venus-[…]) wavelengths. For assaying the antiswitch temporal response, cells were back diluted into fresh media containing 2% galactose. After growing in inducing media for three hours, theophylline or water was added and fluorescence was monitored over time. Fluorescence was normalized for cell number by dividing relative fluorescence units (RFUs) by the OD600 of the culture.
The expression of antiswitches in S. cerevisiae was accomplished using a novel non-coding RNA (ncRNA) expression construct similar to a previously described system (Taira et al., Nucleic Acids Res 19, 5125-30 (1991)) (see FIG. 6). Briefly, the RNA to be expressed is cloned between two hammerhead ribozymes known to self-cleave in vivo (Samarsky et al., Proc Natl Acad Sci USA 96, 6609-14 (1999)). This dual hammerhead construct can be placed under the control of Pol II promoters, and when transcribed the flanking hammerhead ribozymes cleave out from the desired RNA at an efficiency greater than 99% (see FIG. 11). The construct enables creation of ncRNAs with defined 5′ and 3′ ends that are free of potentially interfering flanking sequences. Antiswitch s1 was expressed in this construct under control of a galactose-inducible (GAL1) promoter in yeast cells. A plasmid containing a yeast enhanced GFP (yEGFP) (Mateus et al., Yeast 16, 1313-23 (2000)) under the control of a GAL1 promoter was transformed into the same cells (FIG. 1a).

[2] = biological target: theophylline aptamer; details: cited from earlier work
[3] = system: E. coli membrane; details: cited from earlier work
[4] = system: yellow fluorescent variant protein (Venus) mRNA target; experiment: Protein expression assay: in vivo Venus (YFP) regulation by antiswitches in yeast cells; format: cell-based, S. cerevisiae
Method: as §1
To illustrate this we introduced into cells two switches each responsive to a different effector molecule and each regulating the protein expression of a different mRNA target: s1, a theophylline responsive GFP regulator, and s9 (see FIG. 9), a tetracycline responsive yellow fluorescent variant protein (Venus) (Nagai et al., Nat Biotechnol 20, 87-90 (2002)) regulator (FIG. 5a). Changes in the targeting capabilities of these molecules were made by swapping out the antisense stem and switching aptamer stem while keeping the remainder of the aptamer module the same. Concurrent expression of these two antiswitches with a plasmid carrying both GFP and Venus allowed for an assay of the simultaneous regulation of gene expression by modular antiswitch design. […] Furthermore, the addition of both ligands decreased expression of both GFP and Venus. […]

[5] = Structural probing of antiswitch by nuclease mapping (RNase T1) with theophylline alone
Method: Antiswitch and target sequences were PCR amplified with primers containing a T7 polymerase promoter. RNA was transcribed using Ampliscribe T7 transcription kits (Epicentre) according to manufacture's instructions, except that transcription was carried out at 42° C. and for gel-shift assays antiswitches were radiolabeled by the addition of [α-^32P]-UTP to the transcription mix. The RNA was purified on a 15% denaturing gel, eluted, ethanol precipitated, and resuspended in water. RNA was quantified by OD260 readings. For nuclease mapping, antiswitches were 5′ end labeled with fluorescein (Molecular Probes) by incubating 25 μg of RNA with phosphate reactive label, dissolved in DMSO (Sigma), in labeling buffer (0.12 M methylimidazole pH 9.0, 0.16 M EDAC) for four hours, according to manufacturer's instructions. Labeled RNA was purified by ethanol precipitation and run on a 12% denaturing gel. Fluorescent bands were excised from the gel, eluted into water for three hours at 37° C., and ethanol precipitated.
For nuclease mapping, fluorescein-labeled antiswitch RNA was resuspended in buffer (50 mM Tris-HCl pH 8.0, 100 mM NaCl, 5 mM MgCl2), denatured at 65° C. for three minutes, and allowed to slow cool to room temperature. Antiswitch RNA was incubated with varying concentrations of theophylline at room temperature for 15 minutes. RNase T1 (Ambion) was added to the antiswitch-ligand mixture and incubated at room temperature for 15 minutes. Cleavage products were visualized using laser-induced fluorescence capillary electrophoresis on a P/ACE MDQ machine (Beckman) using a single-stranded nucleic acid analysis kit (Beckman) according to manufacturer's instructions.

[6] = system: GFP mRNA; experiment: RNA quantification by qRT-PCR of antiswitch s1 and target mRNA; format: cell-based, S. cerevisiae
Method: Yeast cells were grown according to methods detailed in protein expression assays. Total RNA was extracted using standard acid phenol extraction procedures (Caponigro et al., Mol Cell Biol 13, 5141-8 (1993)). Briefly, cells were pelleted and frozen in liquid nitrogen. Pellets were resuspended in a 50 mM NaOAc (pH 5.2) and 10 mM EDTA buffer. Cells were lysed by the addition of SDS to a final concentration of 1.6% and equal volume of acid phenol. Solutions were kept at 65° C. with intermittent vortexing for 10 minutes. Following cooling on ice, the aqueous phase was extracted and further extraction was carried out with an equal volume of chloroform. RNA samples were ethanol precipitated and resuspended in water. Total RNA was quantified by OD260 readings. RNA samples were DNased (Invitrogen) according to manufacturer's instructions. cDNA was synthesized using gene-specific primers (see FIG. 13) and Superscript III reverse transciptase (Invitrogen) according to the manufacturer's instructions. qRT-PCR was performed on this cDNA using an iCycler iQ system (BioRAD). Samples were prepared using the iQ SYBR green supermix and primer pairs specific for different templates (see FIG. 13) on dilution series of the cDNA, according to the manufacturer's instructions. Data was analyzed using the iCycler iQ software.

[7] = cells with s1 and s9, plasmid carrying both GFP and Venus
[8] = theophylline and tetracycline, cells with s1 and s9

For “s8: redesigned "on" antiswitch regulator responsive to theophylline, SEQ ID NO: 8 (ACCUUUAGACAUUUAGAUACCAGCAUCGUCUUGAUGCCCUUGGCAGCUAAAUGUC; RNA, backbone not given here)”, the “theophylline concentration at which the antiswitch switches GFP expression (inhibits expression / decreases to background levels)” value [1] was “around 1 mM”.

In the case of `Cn1c(=O)c2[nH]cnc2n(C)c1=O` [theophylline], the Kd [2] is listed as 290 nM and the “drop in theophylline concentration across the E. coli membrane” value [3] is listed as > 1,000 fold.

In the case of `Cn1c(=O)c2c(ncn2C)n(C)c1=O` [caffeine], the “binding to the theophylline aptamer” value [2] is listed as “does not bind”.

B1: s9: tetracycline-responsive Venus (YFP) regulator antiswitch, SEQ ID NO: 9 (nucleic acid)
chain: UUGCUCACCAUGGUCCUCACCAUGGUGAGCAAAAAACAUACCAGAUCGCCACCCGCGCUUUAAUCUGGAGAGGUGAAGAAUACGACCACCUUUGCUCAC
modifications: chemistry not given here
With B1 the “GFP expression on addition of tetracycline” value [1, 7] was “not affecting”, the “Venus expression on addition of tetracycline” value [4, 7] was “decreased” and the “Venus expression on addition of both ligands” value [4, 8] was “decreased”.

B2: s3: stabilized antiswitch construct, antisense stem five nucleotides longer than s1, SEQ ID NO: 3 (nucleic acid)
chain: ACCUUUAGACAUUUAAUUAACCUCUUAAUUAAAUGUCUAAAGGUGAAGAUACCAGCAUCGUCUUGAUGCCCUUGGCAGCUUCACCUUUAG
modifications: RNA, backbone not given here
For B2, the “theophylline concentration required to switch, relative to s1” value [1] was “roughly 1.5 fold”, the “theophylline concentration required to switch, relative to s2” value [1] was roughly 6 fold and the “decrease (inhibition) of GFP expression from control/full expression levels in the "off" state” value ([1]; absence of theophylline) was 10%. For the same molecule, the “theophylline concentration at which the antiswitch switches GFP expression (inhibits expression / decreases to background levels)” value [1] was “approximately 1.25 mM”.

B3: s5: antiswitch with aptamer domain having 10-fold lower affinity to theophylline than s1, SEQ ID NO: 5 (nucleic acid)
chain: ACCUUUAGACAUUUACCUCUAAAUGUCUAAAGGUGAUACCACGCGAAAGCGCCUUGGCAGCACCUUUAG
modifications: RNA, backbone not given here
In the case of B3, the “theophylline concentration required to switch, relative to s1” value [1] is listed as roughly 10 fold, the “switching theophylline concentration compared with s1-4” value [1] is listed as “higher theophylline concentrations” and the “Kd of aptamer domain for theophylline relative to the aptamer used in s1 (higher Kd / lower affinity)” value [2] is listed as roughly 10 fold.

B4: s6: destabilized modified theophylline aptamer antiswitch based on s5, SEQ ID NO: 6 (nucleic acid)
chain: B3 chain with A22C
modifications: RNA, backbone not given here
In the case of B4, the “switching theophylline concentration compared with s1-4” value [1] is reported as “higher theophylline concentrations”.

B5: s1: theophylline-responsive "off" antiswitch RNA targeting GFP mRNA, SEQ ID NO: 1 (nucleic acid)
chain: ACCUUUAGACAUUUACCUCUAAAUGUCUAAAGGUGAUACCAGCAUCGUCUUGAUGCCCUUGGCAGCACCUUUAG
modifications: chemistry not given here
With B5 the “antisense domain (peak 1) RNase T1 cleavage” value ([5]; 2 mM theophylline) was “appearance of peak 1”, the “switching aptamer stem (peak 2) RNase T1 cleavage” value ([5]; 2 mM theophylline) was “absent” and the “switching aptamer stem (peak 2) RNase T1 cleavage” value ([5]; absence of theophylline and 200 μM theophylline) was “cleaved”. The “relative levels of target transcript” value ([6]; cells harboring s1, absence versus high levels of theophylline) was “did not change significantly”, the “steady-state relative level of antiswitch versus target levels” value ([6]; same promoter for antiswitch and target) was “approximately 1,000 fold” and the “GFP expression on addition of caffeine” value ([1]; caffeine as negative control effector) was “does not change expression levels”. For the same molecule, the “GFP expression on addition of theophylline” value [1, 7] was “decreased”, the “GFP expression on addition of both ligands” value [1, 8] was “decreased” and the “Venus expression on addition of theophylline” value [4, 7] was “unaffected”.

B6: s4: destabilized antiswitch construct with altered loop sequence (U18 to C), SEQ ID NO: 4 (nucleic acid)
chain: B5 chain with U18C, A22C
modifications: RNA, backbone not given here
For B6, the “theophylline concentration at which the antiswitch switches GFP expression (inhibits expression / decreases to background levels)” value [1] was 0.1 mM.

B7: s2: destabilized antiswitch construct based on s1 (A21 to C), SEQ ID NO: 2 (nucleic acid)
chain: B5 chain with A22C
modifications: RNA, backbone not given here
With B7 the “theophylline concentration at which the antiswitch switches GFP expression (inhibits expression / decreases to background levels)” value [1] was “greater than 0.2 mM”.
